Article PMC5995969, “Structural basis for the regulation of human 5,10-methylenetetrahydrofolate reductase by phosphorylation and S-adenosylmethionine inhibition” (Nature Communications, 2018)

Target: the molecule itself
Assay: native MS; protein desalted into 50 mM ammonium acetate pH 6.5, infused directly, positive ion ESI-QTOF; as purified or after CIP treatment

| Protein | stoichiometry N |
| --- | --- |
| full-length recombinant human MTHFR (HsMTHFR1–656), as purified (phosphorylated) (enzyme, phosphorylated with partial occupancy, up to ten sites occupied simultaneously: Ser9, Ser10, Ser18, Ser20, Ser21, Ser23, Ser25, Ser26, Ser29, Ser30, Thr34, Tyr90, Thr94, Ser103, Ser394, Thr451, human 5,10-methylenetetrahydrofolate reductase (MTHFR), 656 amino acids, residues 1–656, numbered according to NP_005948.3; also called 5,10-methylenetetrahydrofolate reductase; phosphorylated HsMTHFR_(1–656); source: Sf9 (baculovirus), purified (Ni-NTA, Superdex 200, tag cleaved by TEV protease, re-passaged over Ni-NTA); not shown: FLAG, C-terminal, cleaved; His10, C-terminal, cleaved) not shown | 2 |
| HsMTHFR38–644 (domain or fragment, Not phosphorylated; Native and SeMet-derivatized protein were crystallized; also called truncated HsMTHFR; crystallized construct) not shown | 2 |
| CIP-treated HsMTHFR1–656 (dephosphorylated) (enzyme, human 5,10-methylenetetrahydrofolate reductase (MTHFR), residues 1–656, numbered according to NP_005948.3; Same construct as m1 after removal of 9 or 10 phosphate groups by CIP; Some residues of the cleaved C-terminal tag may be left; also called HsMTHFR_(1–656) (CIP); dephosphorylated HsMTHFR_(1–656); not shown: FLAG, C-terminal, cleaved; His10, C-terminal, cleaved) not shown | 2 |
